In one series the target is T1, Ml2 (Mesorhizobium loti, UniProt A0A1A5JHX8 1-141).
T1 sequence: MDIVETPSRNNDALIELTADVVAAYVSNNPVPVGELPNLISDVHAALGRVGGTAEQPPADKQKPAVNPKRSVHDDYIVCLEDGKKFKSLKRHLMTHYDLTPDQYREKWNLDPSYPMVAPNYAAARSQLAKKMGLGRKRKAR
The series is described as follows: EMSA. The following applies: protein: recombinant; chain copies: 10. For orientation: Mobility shift assays separate free from complexed probe on a gel.

The target in another series is MucR (Brucella abortus 2308, UniProt Q2YMR3 1-142). Briefly: EMSA. The conditions noted are these: protein: recombinant; chain copies: 10; blunt.

B1: Core5 (dsDNA)
DNA 1: GGCGCCGATATATCGGAGCG
DNA 2: CGCTCCGATATATCGGCGCC
Consider B1, for which the binding result with Ml2 is “binds”.

B2: Core1 (dsDNA)
DNA 1: GGCGCCGAAATAGCGGAGCG
DNA 2: CGCTCCGCTATTTCGGCGCC
With B2, the binding result with Ml2 is “binds”.

B3: Seq1.1 (dsDNA)
DNA 1: CCACGTCCCTAGTCGCGTCA
DNA 2: TGACGCGACTAGGGACGTGG
As for B3, the binding result with Ml2 and in the series with MucR was “no binding” throughout.

B4: Exoy43bp (dsDNA)
DNA 1: CCACTGAAATAGTCGCGTCATGAATTGACTAAATAATAAGCTA
DNA 2: TAGCTTATTATTTAGTCAATTCATGACGCGACTATTTCAGTGG
B4: the binding result with Ml2 and with MucR was “binds” throughout.

B5: Core2 (dsDNA)
DNA 1: GGCGCCGAAATAACGGAGCG
DNA 2: CGCTCCGTTATTTCGGCGCC
As to B5, in the series with Ml2, the binding result is recorded as “binds”.

B6: Seq1.2 (dsDNA)
DNA 1: CCACTGACCGCGTCGCGTCA
DNA 2: TGACGCGACGCGGTCAGTGG
Consider B6, for which the binding result with Ml2 and with MucR was “no binding” in each case.

B7: Core3 (dsDNA)
DNA 1: GGCGCCGAAATACCGGAGCG
DNA 2: CGCTCCGGTATTTCGGCGCC
Consider B7, for which the binding result with Ml2 is recorded as “binds”.

B8: Core4 (dsDNA)
DNA 1: GCGAAAAAAATAATTTTGCC
DNA 2: GGCAAAATTATTTTTTTCGC
Regarding B8, in the series with Ml2, the binding result is recorded as “binds”.

B9: Core4mut (dsDNA)
DNA 1: GCGAAAAAAAAAATTTTGCC
DNA 2: GGCAAAATTTTTTTTTTCGC
B9: the binding result in the series with Ml2 is on record as “no binding”.

B10: Seq3.2 (dsDNA)
DNA 1: ATTGACTAAAGCCGAAGCTA
DNA 2: TAGCTTCGGCTTTAGTCAAT
On to B10, for which the binding result with Ml2 and with MucR was “no binding” throughout.

B11: Seq3.1 (dsDNA)
DNA 1: ATTGACGCCCTAATAAGCTA
DNA 2: TAGCTTATTAGGGCGTCAAT
In the case of B11, the binding result with Ml2 and in the series with MucR was “no binding” in each case.

B12: Core2mut (dsDNA)
DNA 1: GGCGCCGAAAAAACGGAGCG
DNA 2: CGCTCCGTTTTTTCGGCGCC
Turning to B12, the binding result in the series with Ml2 is on record as “no binding”.

The record behind these values is publication PMC5693944, “Ml proteins from Mesorhizobium loti and MucR from Brucella abortus: an AT-rich core DNA-target site and oligomerization ability”.
